Data: US20190142971A1, “FORMULATION AND DELIVERY OF MODIFIED NUCLEOSIDE, NUCLEOTIDE, AND NUCLEIC ACID COMPOSITIONS” (ModernaTX, Inc., priority 2013, published 2019)

How the values were obtained:
Assay type in all cases: in vivo
Sprague-Dawley rats = experiment: Example 34: EPO mRNA in buffer IM in rats, serum EPO (Table 59); conditions: 13 hours post injection
mice [1] = experiment: Example 42B: EPO mRNA dose response IM in mice (Table 68)
Method: The mice were bled at 13 hours after the injection to determine the concentration of the human polypeptide in serum in pg/mL.

Balb-C mice = experiment: Example 108: luciferase mRNA IM with electroporation, total flux (Tables 174-176); conditions: PBS, IM 2.5 mg/kg
Method: The mice of Group 2 were treated with electroporation (EP) using the […]™ instrument (Harvard Apparatus/BTX®, Holliston, Mass.) immediately after administration of luciferase.
[…] Twenty minutes prior to imaging, the mice were injected intraperitoneally with a D-luciferin solution at 150 mg/kg. Animals were then anesthetized and images were acquired with an IVIS Lumina II imaging system (Perkin Elmer). Bioluminescence was measured as total flux (photons/second) of the entire mouse.

mice [2] = experiment: Example 18: time course LNP IV in mice, serum EPO/G-CSF ELISA (Table 35); conditions: for protein expression detectable out to: mice IV; for EPO / G-CSF Serum Concentration: mice, LNP IV
Method: (§1) Formulations, listed in Table 33, were characterized by particle size, zeta potential, and encapsulation.
LNP formulations, shown in Table 33 (above), were administered to mice (n=5) intravenously (IV) at a single modified mRNA dose of 0.5, 0.05 or 0.005 mg/kg. The mice were bled at 8 hours, 24 hours, 72 hours and 6 days after they were administered with G-CSF or EPO modified mRNA formulations to determine protein expression using ELISA.

mice [3] = experiment: Example 19A: LNP IV in mice, serum EPO/G-CSF ELISA (Table 36)
Method: as §1
LNP formulations, shown in Table 33 (above), were administered to mice (n=4) intravenously (IV) at a single modified mRNA dose 0.05 mg/kg or 0.005 mg/kg. There was also 3 control groups of mice (n=4) that were untreated. The mice were bled at 2 hours, 8 hours, 24 hours, 48 hours and 72 hours after they were administered with G-CSF or EPO modified mRNA formulations to determine the protein expression. Protein expression of G-CSF and EPO were determined using ELISA.

[4] = tested on: non-human primates (cynomolgus monkey); experiment: Example 22: NHP serum chemistry ALT and AST (Tables 45, 46)
[5] = Dose Vol. (μl/mouse) 100, 13 hours
[6] = 0.005 mg/kg, 2 days, Female NHP
[7] = 0.005 mg/kg, 4 days, Female NHP
[8] = 0.005 mg/kg, 7 days, Female NHP
[9] = 0.005 mg/kg, 14 days, Female NHP
[10] = 0.005 mg/kg, Pre-dose, Female NHP
[11] = 0.005 mg/kg, Pre-dose, Male NHP
[12] = 0.05 mg/kg, 14 days, Female NHP
[13] = 0.05 mg/kg, Pre-dose, Female NHP
[14] = 0.5 mg/kg, Pre-dose, Female NHP

## Luciferase: luciferase mRNA, SEQ ID NO: 14, Cap1, fully modified with 5-methylcytosine and pseudouridine
Sprague-Dawley rats; dose 100 μg
  human EPO in serum, Avg.: 24.5 pg/mL
  human EPO in serum, Geometric-mean: 22.4 pg/mL
Mice [1]; [5]
  Average Protein Product, serum: 0.0 pg/mL
Balb-C mice; Group 1, no EP, 3 Hours
  Total Flux (photons/s): 2.57E+07 photons/s
Balb-C mice; Group 1, no EP, 24 Hours
  Total Flux (photons/s): 3.81E+07 photons/s
Balb-C mice; Group 1, no EP, 48 Hours
  Total Flux (photons/s): 1.24E+07 photons/s
Balb-C mice; Group 1, no EP, 72 Hours
  Total Flux (photons/s): 5.69E+06 photons/s
Balb-C mice; Group 1, no EP, 168 Hours
  Total Flux (photons/s): 1.48E+06 photons/s
Balb-C mice; Group 1, no EP, 240 Hours
  Total Flux (photons/s): 6.50E+05 photons/s
Balb-C mice; Group 1, no EP, 360 Hours
  Total Flux (photons/s): 1.86E+05 photons/s
Balb-C mice; Group 1, no EP, 480 Hours
  Total Flux (photons/s): 6.65E+04 photons/s
Balb-C mice; Group 2, with EP, 24 Hours
  Total Flux (photons/s): 8.27E+07 photons/s
Balb-C mice; Group 2, with EP, 48 Hours
  Total Flux (photons/s): 7.06E+07 photons/s
Balb-C mice; Group 2, with EP, 72 Hours
  Total Flux (photons/s): 6.50E+07 photons/s
Balb-C mice; Group 2, with EP, 168 Hours
  Total Flux (photons/s): 1.81E+07 photons/s
Balb-C mice; Group 2, with EP, 240 Hours
  Total Flux (photons/s): 1.44E+07 photons/s
Balb-C mice; Group 2, with EP, 360 Hours
  Total Flux (photons/s): 3.98E+06 photons/s
Balb-C mice; Group 2, with EP, 480 Hours
  Total Flux (photons/s): 1.47E+06 photons/s
Balb-C mice; Group 2, with electroporation (EP), 3 Hours
  Total Flux (photons/s): 1.25E+07 photons/s

B1: EPO: modified mRNA encoding human erythropoietin, SEQ ID NO: 7, Cap1, fully modified with 5-methylcytosine and pseudouridine; LNP NPA-060-1 in Examples 17-22 (nucleic acid)
chain: GGGAAAUAAGAGAGAAAAGAAGAGUAAGAAGAAAUAUAAGAGCCACCAUGGGAGUGCACGAGUGUCCCGCGUGGUUGUGGUUGCUGCUGUCGCUCUUGAGCCUCCCACUGGGACUGCCUGUGCUGGGGGCACCACCCAGAUUGAUCUGCGACUCACGGGUACUUGAGAGGUACCUUCUUGAAGCCAAAGAAGCCGAAAACAUCACAACCGGAUGCGCCGAGCACUGCUCCCUCAAUGAGAACAUUACUGUACCGGAUACAAAGGUCAAUUUCUAUGCAUGGAAGAGAAUGGAAGUAGGACAGCAGGCCGUCGAAGUGUGGCAGGGGCUCGCGCUUUUGUCGGAGGCGGUGUUGCGGGGUCAGGCCCUCCUCGUCAACUCAUCACAGCCGUGGGAGCCCCUCCAACUUCAUGUCGAUAAAGCGGUGUCGGGGCUCCGCAGCUUGACGACGUUGCUUCGGGCUCUGGGCGCACAAAAGGAGGCUAUUUCGCCGCCUGACGCGGCCUCCGCGGCACCCCUCCGAACGAUCACCGCGGACACGUUUAGGAAGCUUUUUAGAGUGUACAGCAAUUUCCUCCGCGGAAAGCUGAAAUUGUAUACUGGUGAAGCGUGUAGGACAGGGGAUCGCUGAUAAGCUGCCUUCUGCGGGGCUUGCCUUCUGGCCAUGCCCUUCUUCUCUCCCUUGCACCUGUACCUCUUGGUCUUUGAAUAAAGCCUGAGUAGGAAG
modifications: Cap1, 5-methylcytosine, pseudouridine
Mice [2]
  protein expression detectable out to: 6 days
Mice [2]; 0.005 mg/kg and 0.05 mg/kg
  protein expression detectable out to: 3 days
Mice [2]; 0.005 mg/kg, 8 hours
  EPO / G-CSF Serum Concentration: 12,508.3 pg/ml
Mice [2]; 0.005 mg/kg, 24 hours
  EPO / G-CSF Serum Concentration: 6,803.0 pg/ml
Mice [2]; 0.05 mg/kg, 8 hours
  EPO / G-CSF Serum Concentration: 92,139.9 pg/ml
Mice [2]; 0.05 mg/kg, 24 hours
  EPO / G-CSF Serum Concentration: 54,389.4 pg/ml
Mice [2]; 0.5 mg/kg, 8 hours
  EPO / G-CSF Serum Concentration: 498,515.3 pg/ml
Mice [2]; 0.5 mg/kg, 24 hours
  EPO / G-CSF Serum Concentration: 160,566.3 pg/ml
Mice [2]; 0.5 mg/kg, 72 hours
  EPO / G-CSF Serum Concentration: 3,492.5 pg/ml
Mice [2]; 0.5 mg/kg, 6 days
  EPO / G-CSF Serum Concentration: 21.2 pg/mL
Mice [3]; 0.005 mg/kg, 2 hours
  EPO / G-CSF Serum Concentration: OSC
Mice [3]; 0.005 mg/kg, 8 hours
  EPO / G-CSF Serum Concentration: 1,632.8 pg/ml
Mice [3]; 0.005 mg/kg, 24 hours
  EPO / G-CSF Serum Concentration: 1,141.0 pg/ml
Mice [3]; 0.005 mg/kg, 48 hours
  EPO / G-CSF Serum Concentration: 137.4 pg/mL
Mice [3]; 0.005 mg/kg, 72 hours
  EPO / G-CSF Serum Concentration: 0 pg/mL
Mice [3]; 0.05 mg/kg, 2 hours
  EPO / G-CSF Serum Concentration: 10,027.3 pg/ml
Mice [3]; 0.05 mg/kg, 8 hours
  EPO / G-CSF Serum Concentration: 56,547.2 pg/ml
Mice [3]; 0.05 mg/kg, 24 hours
  EPO / G-CSF Serum Concentration: 25,027.3 pg/ml
Mice [3]; 0.05 mg/kg, 48 hours
  EPO / G-CSF Serum Concentration: 1,432.3 pg/ml
Mice [3]; 0.05 mg/kg, 72 hours
  EPO / G-CSF Serum Concentration: 82.2 pg/mL
[4]; [6]
  ALT: 48 U/L
  AST: 25 U/L
[4]; 0.005 mg/kg, 2 days, Male NHP
  ALT: 62 U/L
  AST: 29 U/L
[4]; [7]
  ALT: 50 U/L
  AST: 55 U/L
[4]; 0.005 mg/kg, 4 days, Male NHP
  ALT: 48 U/L
  AST: 43 U/L
[4]; [8]
  ALT: 48 U/L
  AST: 31 U/L
[4]; 0.005 mg/kg, 7 days, Male NHP
  ALT: 21 U/L
  AST: 55 U/L
[4]; [9]
  ALT: 51 U/L
  AST: 54 U/L
[4]; 0.005 mg/kg, 14 days, Male NHP
  ALT: 43 U/L
  AST: 35 U/L
[4]; [10]
  ALT: 45 U/L
  AST: 40 U/L
[4]; [11]
  ALT: 45 U/L
  AST: 39 U/L
[4]; 0.05 mg/kg, 2 days, Female NHP
  ALT: 254 U/L
  AST: 80 U/L
[4]; 0.05 mg/kg, 2 days, Male NHP
  ALT: 95 U/L
  AST: 61 U/L
[4]; 0.05 mg/kg, 4 days, Female NHP
  ALT: 200 U/L
  AST: 94 U/L
[4]; 0.05 mg/kg, 4 days, Male NHP
  ALT: 70 U/L
  AST: 48 U/L
[4]; 0.05 mg/kg, 7 days, Female NHP
  ALT: 187 U/L
  AST: 78 U/L
[4]; 0.05 mg/kg, 7 days, Male NHP
  ALT: 64 U/L
  AST: 53 U/L
[4]; [12]
  ALT: 216 U/L
  AST: 47 U/L
[4]; 0.05 mg/kg, 14 days, Male NHP
  ALT: 29 U/L
  AST: 32 U/L
[4]; [13]
  ALT: 160 U/L
  AST: 58 U/L
[4]; 0.05 mg/kg, Pre-dose, Male NHP
  ALT: 56 U/L
  AST: 74 U/L
[4]; 0.5 mg/kg, 2 days, Female NHP
  ALT: 77 U/L
  AST: 141 U/L
[4]; 0.5 mg/kg, 2 days, Male NHP
  ALT: 98 U/L
  AST: 125 U/L
[4]; 0.5 mg/kg, 4 days, Female NHP
  ALT: 87 U/L
  AST: 60 U/L
[4]; 0.5 mg/kg, 4 days, Male NHP
  ALT: 94 U/L
  AST: 71 U/L
[4]; 0.5 mg/kg, 7 days, Female NHP
  ALT: 59 U/L
  AST: 47 U/L
[4]; 0.5 mg/kg, 7 days, Male NHP
  ALT: 60 U/L
  AST: 56 U/L
[4]; 0.5 mg/kg, 14 days, Female NHP
  ALT: 44 U/L
  AST: 44 U/L
[4]; 0.5 mg/kg, 14 days, Male NHP
  ALT: 88 U/L
  AST: 82 U/L
[4]; [14]
  ALT: 31 U/L
  AST: 20 U/L
[4]; 0.5 mg/kg, Pre-dose, Male NHP
  ALT: 50 U/L
  AST: 59 U/L
Sprague-Dawley rats; dose 1 μg
  human EPO in serum, Avg.: 28.7 pg/mL
  human EPO in serum, Geometric-mean: 25.4 pg/mL
Sprague-Dawley rats; dose 10 μg
  human EPO in serum, Avg.: 46.3 pg/mL
  human EPO in serum, Geometric-mean: 31.2 pg/mL
Sprague-Dawley rats; dose 50 μg
  human EPO in serum, Avg.: 101.5 pg/mL
  human EPO in serum, Geometric-mean: 85.4 pg/mL
Sprague-Dawley rats; dose 100 μg
  human EPO in serum, Avg.: 79.4 pg/mL
  human EPO in serum, Geometric-mean: 66.9 pg/mL
Sprague-Dawley rats; dose 150 μg
  human EPO in serum, Avg.: 67.7 pg/mL
  human EPO in serum, Geometric-mean: 67.1 pg/mL
Mice [1]; Dose Vol. (μl/mouse) 1, 13 hours
  Average Protein Product, serum: 2.6 pg/mL
Mice [1]; Dose Vol. (μl/mouse) 10, 13 hours
  Average Protein Product, serum: 25.9 pg/mL
Mice [1]; Dose Vol. (μl/mouse) 25, 13 hours
  Average Protein Product, serum: 18.7 pg/mL
Mice [1]; Dose Vol. (μl/mouse) 50, 13 hours
  Average Protein Product, serum: 63.5 pg/mL
Mice [1]; [5]
  Average Protein Product, serum: 96.2 pg/mL
